Measured values from patent US20260116983A1.

Assays:
[1] = target: human uPAR displayed on the surface of MDA-MB-231 cells (human) (UniProt Q03405); assay: cell-based or functional assay
[2] = target: human uPAR displayed on the surface of MDA-MB-231 cells (human) (UniProt Q03405); assay: flow cytometry (FACS) on MDA-MB-231 cells; isotype control

human uPAR displayed on the surface of MDA-MB-231 cells (human), sequence (Q03405 23-305): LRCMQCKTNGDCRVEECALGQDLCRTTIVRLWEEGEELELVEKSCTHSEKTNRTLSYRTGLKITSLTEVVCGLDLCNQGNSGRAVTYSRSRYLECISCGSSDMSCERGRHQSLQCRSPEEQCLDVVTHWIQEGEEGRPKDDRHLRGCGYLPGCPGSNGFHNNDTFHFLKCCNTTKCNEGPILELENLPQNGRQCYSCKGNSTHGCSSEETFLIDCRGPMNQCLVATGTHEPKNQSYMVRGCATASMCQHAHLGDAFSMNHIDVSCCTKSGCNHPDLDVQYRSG

ADCC NK-92 Max % [1]: 0.468% | ADCC PBMCs Max % [1]: 4.8% | Cellular recognition Max % [2]: 155%
Substance: human IgG1 control (antibody)
